Target: GFP with a c-Myc nuclear localization signal at the C-terminus (GFP-NLS)
Assay: label-free LC MS/MS

With “AAV-DJ capsid incorporating VP1 with a GFPnb inserted at position H631, supplemented with wild type VP2/VP3 (complex)” as the substance, how does the GFP:capsid (GFP-NLS per capsid) read?
Its GFP:capsid (GFP-NLS per capsid) is 1 to 3.

Source: article PMC11343202
